Experimental data taken from the supplement of paper PMC12042874.
± gives the uncertainty stated by the source.

Experiment: amyloid nucleation score (Sup35N fusion, yeast selection) (log enrichment); library NNK2; higher = more nucleation; inactive = no reads after selection
How it was run: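 Random libraries were run with three technical output replicates. In each, psi-negative yeast expressing Sup35N fused to peptides of 20 random codons were induced 24 hours with 100 μM copper sulfate and grown 7 days at 30°C on medium lacking adenine and uracil, and input and output plasmid inserts were Illumina-sequenced. The nucleation score is the DiMSum log enrichment of output over input reads, centred on the mode score of non-aggregating sequences, and sequences under 100 input reads were excluded.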

Substance	amyloid nucleation score
KLFSYPIWWSRYCRMGRHRC	0.374 ± 0.28
KLIYSSYVGSFLMELRWVCD	1.74 ± 0.17
KLKRHL	-0.3 ± 0.24
KLQRTGLYCYLY	-0.912 ± 0.42
KLSGC	0.265 ± 1.1
KLSYFAFFRSVDGLR	0.508 ± 0.53
KLYSQTVSANLGVGWSSS	2.12 ± 0.15
KMFVILIIHTLLGAITAVCG	0.186 ± 0.76
KMMTSSFRMDGVNSTLIWLI	-0.08 ± 1
KMRDGFISLVKCEYVGGFGC	-0.856 ± 0.76
KMTRLLFYWSFGCGLIHLVC	-0.464 ± 1.1
KMWIRLLRSEIPKCVGLTVS	0.66 ± 0.23
KNFQEHYVFLRARRLKLLSY	-0.095 ± 0.8
KNGQYDGTGDNSLLGPDGFI	3.44 ± 0.075
KNILGGDSFWFLLYGYHLFI	inactive
KNINWILNAGSMLVSFYRPW	7.328 ± 0.065
KNIPFRMYWS	2.6 ± 0.075
KNKSFNMACPVLVYGGFLIR	inactive
KNLRWCQGFSRGIECRSLMV	-0.639 ± 0.55
KPCSGIRVCIDLCYPP	0.383 ± 0.74
KPHGGGSRLGCRGKWLTILL	1.29 ± 0.32
KPIIGGVSTERSLVIAGVHL	0.011 ± 0.79
KPWFVVDRKNFRSNSAPWLG	0.073 ± 0.29
KQHVRMYWIAALAPMSGRGW	4.448 ± 0.042
KQIVFSANFDHRGGLVVLRW	3.08 ± 0.073

Substance	amyloid nucleation score
KQLRSSVSSSYYHGNTVCAE	0.794 ± 0.39
KQMFRQFLCGNVYNWRYMRA	0.298 ± 0.56
KQPLYCHDWFHLCGSDSTSF	2.75 ± 0.16
KRGMRRKGDFTERKVETLVG	2.39 ± 0.11
KRILS	-0.13 ± 0.34
KRLCYVSYWIYSYSRDGELK	-1.23 ± 1.1
KRLTPS	0.155 ± 1.1
KRNDCLFGRVALCGMFRLSA	0.198 ± 0.5
KRNVLLLYYSCSAICSRYVV	-0.22 ± 0.63
KRRKSSTTVSKVGTGLEWMG	0.874 ± 0.15
KRRSNSTILGPINSPRVAEG	-0.258 ± 0.42
KRSLIINGAATT	1.61 ± 0.26
KRSVVKNLG	0.157 ± 0.29
KSAYIGASNHAEIRHQSLSS	0.253 ± 0.24
KSETAVRVNGYGAKIQE	-0.224 ± 0.79
KSFIGWLYMDTEYHWMYQPW	0.27 ± 0.28
KSRLGCTWSGAHQSIRPLRR	1.22 ± 0.41
KSSDGPKAQV	1.13 ± 0.16
KSVWLKVGCQPPIRFEFCEM	0.037 ± 0.49
KTFTWHIVRLYYKYPPMPKV	inactive
KTGESMVNPIARMWLR	1.51 ± 0.17
KTGYINCSIMDYMV	inactive
KTHIREVCEGVTIIHKWTWV	-0.508 ± 0.63
KTRYALPVDQCYMKNRNMLV	0.295 ± 0.51
KVESVKHRQNKGFYCWLVRN	-1.25 ± 0.75

Substance	amyloid nucleation score
KVGDQLQLRTSATV	0.459 ± 0.22
KVMGYGYA	-1.02 ± 0.55
KVRDCDIMAPNIMVRSLNRS	1.73 ± 0.16
KVRFHSL	2.72 ± 0.11
KVRKYSEFSLQSQCDPLGRG	0.455 ± 0.5
KVSWFVRIYMCEIRMRIGRS	1.44 ± 0.33
KVWECLEAGNFGVDMRWCDR	0.524 ± 0.31
KWIRDIRDLQTH	-0.275 ± 0.65
KWTFLRLILTMV	-0.511 ± 0.56
KWVGQLTVVMWLKCNPFCFE	0.257 ± 0.64
KWVMRNIWDTYSKVGLQSST	-0.206 ± 0.39
KYCHLWCEKGMELSALSEAV	0.001 ± 0.76
KYGDNSMYLMLLMVCYKGAC	-0.622 ± 1.1
KYGTSIVTHGAVKDAKYCCR	3.44 ± 0.062
KYHRI	-0.721 ± 0.74
KYLRVDMVNMNAYKGHWEGS	0.526 ± 0.66
KYNDGEFIVVIVGILAYAVV	-0.238 ± 0.34
LADTVIMGLGSTLFVYVYLI	3.88 ± 0.077
LAGLALITIIDIFGDNGRMI	3.2 ± 0.082
LAIVQ	-0.256 ± 0.42
LANYYTDSVRPSCGY	-0.022 ± 0.55
LAPLNSWKTY	-0.045 ± 0.56
LARACKIEAYFLLVHVSIMC	-0.174 ± 0.76
LASFGLRGVRQCQMNAE	1.78 ± 0.15
LASPGTRFSFGSLVACGVVQ	-0.178 ± 0.35

Substance	amyloid nucleation score
LAWITKSMFLL	0.672 ± 0.56
LAWLCRWGSVTYYCYSFGQV	-0.841 ± 0.62
LCACIELSNKMLLTFNSNVK	-0.517 ± 0.32
LCCGLFFFVRVY	2.06 ± 0.091
LCCVVEN	-0.603 ± 0.42
LCFQVVMPWNNISLSFLWLG	0.759 ± 0.52
LCFSVNLARNLWLDNWVGGR	6.12 ± 0.084
LCGAILIIVHYYG	5.446 ± 0.047
LCGFTIPSNVSLGRR	4 ± 0.11
LCILTRTYSAQA	-0.238 ± 0.49
LCISIRD	-0.111 ± 0.8
LCLTLVRPPRSCMLATL	inactive
LCMKYGVCVYVLFGWCKYTV	-0.068 ± 0.79
LCPVLYT	inactive
LCRMCIANCLMSCWESSYQV	3.13 ± 0.17
LCRYTCSSLSVYLNNMILCG	1.33 ± 0.13
LCSFAMKLVCNRVMAFDIES	1.68 ± 0.19
LCSKGYIMRSAGCRVDCSGV	-0.58 ± 0.41
LCSRSYGFRFYFSSGAQSVR	0.541 ± 0.66
LCSVQLRLMVAHNSRHLACM	1.5 ± 0.25
LCSVWEVFLYFF	1.84 ± 0.11
LCTIRFVNIFVCRMSKLNSH	-1.4 ± 0.62
LCVYNPNVKYVHPCWTASGG	-0.529 ± 0.44
LCWMRFLDSCEEVHKSIHVF	0.38 ± 0.39
LDPTVPGVIANVPNRRLARS	5.87 ± 0.061

Substance	amyloid nucleation score
LDSQMWNMSGQVRTRIGRSV	0.459 ± 0.43
LEAMVTITT	0.273 ± 0.39
LEHQSRSFMNFYTRPNKPLE	-0.519 ± 1
LERFSATYLKAWSGGVCVRV	-0.067 ± 0.65
LFASALFRMVSAFLEVAIL	0.722 ± 0.43
LFCRSSC	inactive
LFECMPYGLNAKDSCADSNV	-0.303 ± 0.5
LFFIIDNSQLSSSVDGLIVE	-0.583 ± 1
LFGSKVHSSWRPSCLFTSAV	0.377 ± 0.33
LFGVSMSKADMSFWQDSGTR	4.77 ± 0.092
LFIEGNVSWGYACLHIRSVG	0.039 ± 0.79
LFKEDRDRCSC	0.99 ± 0.49
LFLGYMSLCVVYVLAFGRFE	3.79 ± 0.043
LFLHVSGNAYGNNCRLSGPL	0.369 ± 0.22
LFLRLVNQMVLLIKEWNVWG	0.196 ± 0.3
LFMACLIGIFFHVETTRCRW	2.5 ± 0.13
LFNGTMY	inactive
LFNSAVLK	-0.092 ± 0.33
LFPSLMAVNVQRSDTGPSHG	1.2 ± 0.45
LFQLGASTR	0.147 ± 0.76
LFWELEM	4.7 ± 0.091
LFYSTPDRCKRVDVSGISLM	-0.325 ± 0.76
LGCNDSWEWDFVTPNGTFPF	-0.445 ± 0.48
LGFAMWFTPRFCFTVYNSYD	-0.422 ± 1
LGHAISAHVMIIICWKDVFL	5.08 ± 0.077

Substance	amyloid nucleation score
LGHFSFD	inactive
LGIIQTVCRHGLQFMCVSRG	-0.122 ± 0.49
LGLTYGHHWY	3.12 ± 0.071
LGMRLFRNVCYGLPSRSNRR	1.64 ± 0.41
LGPGLDLSIINYEWIIF	-0.202 ± 0.79
LGPLVMVFCVRIPYTTMVAW	-1.25 ± 0.45
LGPMTLATTLFNCKDRHVSP	0.438 ± 0.29
LGRCSALGYIRISCTMKGAG	0.21 ± 0.74
LGRIHYNLFYVYV	2.27 ± 0.14
LGRKR	-0.725 ± 0.76
LGSNEPL	-0.337 ± 0.63
LGWASYVYGCGRRGGSCRGW	1.87 ± 0.12
LGYKVSK	2.63 ± 0.19
LGYMVVK	-1.35 ± 0.75
LHAHYWCRVSKEPCCWCKMG	1.02 ± 0.49
LHCLAISFNNFSLMVLYAGN	-0.187 ± 0.54
LHHYAFFSHM	inactive
LHIFSSWTRW	-0.451 ± 0.76
LHIGKFNVNLFN	4.32 ± 0.045
LHIYTKVHRSR	3.59 ± 0.13
LHRTLSRRTEVR	3.54 ± 0.086
LHSCLMCRTSMWSVSIWLKL	-0.049 ± 0.74
LIAQMM	-1.22 ± 0.48
LICLSMSQCMDCNLGNSWWV	inactive
LIERDNTWRATSRCITIESG	1.17 ± 0.45

Substance	amyloid nucleation score
LIFCGECTILNTGGGNRAWV	8.361 ± 0.03
LIFRFLGLVMLFQ	inactive
LIFRVFFALTVGIRRIMHML	5.83 ± 0.059
LIGGLVSPISRYEVGWQDAV	-0.213 ± 0.62
LIGYI	1.96 ± 0.11
LIIDQVIMNGINVPYTYLIY	4.15 ± 0.056
LILNLVFFVIPDTVFYTSGL	6.732 ± 0.058
LINEFNAKNQSVRIFPVSEK	-0.645 ± 0.64
LINMLGWVRFY	0.623 ± 0.44
LIPIRALRHYFRFIVCV	-0.142 ± 0.61
LISRL	-0.54 ± 1.1
LIVTLSDRWWEKGASLVESG	0.699 ± 0.15
LIYRCN	-0.673 ± 1
LIYVATMWGNHSFYDLWDMQ	0.112 ± 0.21
LKCPALRSSSPNDLFVP	0.626 ± 0.65
LKGCQDLLLVDSGGSTTWYG	-0.836 ± 0.63
LKIQEPNRYW	-0.945 ± 0.76
LKIYLCIPHRRL	0.082 ± 1.1
LKLCLRCSNIVLPD	-0.434 ± 0.3
LKLRSVKSFDFVWMIVAAEV	0.482 ± 0.26
LKWDASKAWILRCQCFRELW	-0.678 ± 0.76
LKYVLARCFRKCWYVLWTSA	-0.451 ± 0.54
